The text below walks through data of US20160347802A1 (MAX PLANCK GESELLSCHAFT ZUR FOERDERUNG DER WISSENSCHAFTEN E …, published 2016).

Sequences and labels used below:
B1: human DRAXIN 21 amino acid Netrin binding fragment, AVEXIS prey or bait protein (peptide)
peptide: EVMPTLDMALFDWTDYEDLKP
notes: Tested in both bait and prey orientations; also called human 21 amino acid DRAXIN fragment; derived 21 amino acid peptide; not shown: AVEXIS tag (rat Cd4d3+4 and prey or bait module)
B2: human DRAXIN, AVEXIS prey or bait protein (ligand)
chain: GALAPGTPARNLPENHIDLPGPALWTPQASHHRRRGPGKKEWGPGLPSQAQDGAVVTATRQASRLPEAEGLLPEQSPAGLLQDKDLLLGLALPYPEKENRPPGWERTRKRSREHKRRRDRLRLHQGRALVRGPSSLMKKAELSEAQVLDAAMEESSTSLAPTMFFLTTFEAAPATEESLILPVTSLRPQQAQPRSDGEVMPTLDMALFDWTDYEDLKPDGWPSAKKKEKHRGKLSSDGNETSPAEGEPCDHHQDCLPGTCCDLREHLCTPHNRGLNNKCFDDCMCVEGLRCYAKFHRNRRVTRRKGRCVEPETANGDQGSFINV
notes: It was tested in both bait and prey orientations

Data set [1] deals with the molecule itself. Briefly: AVEXIS, prey on bait DRAXIN 21aa; white = No binding. An excerpt:
(§1) The Matn4-bait served as an internal prey-protein control and was used for normalization of the A486 nm values; conditioned medium (CM) serves as negative control; n=3.

The target of data set [2] is T1, human Netrin-G1, AVEXIS protein (human, UniProt Q9Y2I2 29-510).
T1 construct: not shown: AVEXIS tag (bait or prey)
T1 sequence (looked up): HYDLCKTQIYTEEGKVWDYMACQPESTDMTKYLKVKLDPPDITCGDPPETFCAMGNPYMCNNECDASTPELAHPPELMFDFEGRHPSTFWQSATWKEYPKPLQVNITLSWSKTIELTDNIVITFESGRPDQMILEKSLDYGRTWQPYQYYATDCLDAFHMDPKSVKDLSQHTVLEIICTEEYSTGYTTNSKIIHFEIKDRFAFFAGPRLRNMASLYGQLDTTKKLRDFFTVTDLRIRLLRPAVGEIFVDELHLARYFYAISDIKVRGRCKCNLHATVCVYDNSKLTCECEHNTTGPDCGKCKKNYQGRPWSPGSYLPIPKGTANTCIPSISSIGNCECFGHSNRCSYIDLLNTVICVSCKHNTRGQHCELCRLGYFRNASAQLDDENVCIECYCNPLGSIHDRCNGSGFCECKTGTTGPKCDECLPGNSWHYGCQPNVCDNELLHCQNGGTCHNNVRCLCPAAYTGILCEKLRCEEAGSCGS
Briefly: AVEXIS, prey NTNG1 on bait DRAXIN 21aa.
Source text: as §1

Data set [3] deals with T2, biotinylated recombinant human UNC5B (human, UniProt Q8IZJ1 27-377).
T2 construct: Made in HEK293-6E and immobilised on an SA chip
The data set can be described thus: AVEXIS, prey on bait UNC5B; white = No binding.
Source text: as §1

The target of data set [4] is T1, human Netrin-G1, AVEXIS protein. The data set can be described thus: AVEXIS, prey on bait NTNG1; white = No binding.
Source text: as §1

In data set [5] the target is T3, human Netrin-G2, AVEXIS protein (human, UniProt Q96CW9 18-507).
T3 construct: not shown: AVEXIS tag (bait or prey)
T3 sequence (looked up): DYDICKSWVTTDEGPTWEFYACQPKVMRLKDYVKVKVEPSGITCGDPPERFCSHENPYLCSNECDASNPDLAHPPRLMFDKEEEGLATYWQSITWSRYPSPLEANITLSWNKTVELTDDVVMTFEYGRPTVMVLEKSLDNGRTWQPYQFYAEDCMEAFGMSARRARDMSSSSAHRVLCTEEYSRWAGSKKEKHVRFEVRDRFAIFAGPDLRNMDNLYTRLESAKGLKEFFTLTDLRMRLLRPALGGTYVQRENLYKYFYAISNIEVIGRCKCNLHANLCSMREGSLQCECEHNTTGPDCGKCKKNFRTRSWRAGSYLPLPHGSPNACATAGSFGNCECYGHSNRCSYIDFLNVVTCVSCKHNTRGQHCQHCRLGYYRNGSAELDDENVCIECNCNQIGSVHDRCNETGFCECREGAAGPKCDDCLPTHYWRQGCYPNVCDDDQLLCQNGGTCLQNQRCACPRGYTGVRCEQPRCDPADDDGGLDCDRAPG
The data set can be described thus: AVEXIS, prey on bait NTNG2; white = No binding.
Source text: as §1

The target of data set [6] is B2. The data set can be described thus: AVEXIS, prey on bait DRAXIN; white = No binding.
Source text: as §1

The target of data set [7] is T3, human Netrin-G2, AVEXIS protein. The data set can be described thus: AVEXIS, prey NTNG2 on bait DRAXIN 21aa.
Source text: as §1

In data set [8] the target is T2, biotinylated recombinant human UNC5B. The data set can be described thus: AVEXIS, prey DRAXIN 21aa on bait UNC5B.
Source text: as §1

Data set [9] concerns the molecule itself. The data set can be described thus: AVEXIS, prey DRAXIN 21aa on bait DRAXIN 21aa.
Source text: as §1

Data set [10] has as its target B2. The data set can be described thus: AVEXIS, prey DRAXIN on bait DRAXIN 21aa.
Source text: as §1

Data set [11] addresses T4, human Netrin1, recombinant AVEXIS protein (biotinylated when immobilised) (human, UniProt O95631 25-604).
T4 construct: also called NTN1
Briefly: AVEXIS, prey on bait NTN1; dark = Binding.
Source text: as §1

Data set [12] addresses T5, Matn4 ECD, mono-biotinylated bait protein (positive control).
T5 construct: extracellular domain; also called Matn4-bait
The data set can be described thus: AVEXIS, prey on bait Matn4 (+), positive control for the prey; dark = Binding.
Source text: as §1

Data set [13] addresses T6, human Netrin-4, AVEXIS protein (human, UniProt Q9HB63 19-628).
T6 construct: not shown: AVEXIS tag (bait or prey)
T6 sequence (looked up): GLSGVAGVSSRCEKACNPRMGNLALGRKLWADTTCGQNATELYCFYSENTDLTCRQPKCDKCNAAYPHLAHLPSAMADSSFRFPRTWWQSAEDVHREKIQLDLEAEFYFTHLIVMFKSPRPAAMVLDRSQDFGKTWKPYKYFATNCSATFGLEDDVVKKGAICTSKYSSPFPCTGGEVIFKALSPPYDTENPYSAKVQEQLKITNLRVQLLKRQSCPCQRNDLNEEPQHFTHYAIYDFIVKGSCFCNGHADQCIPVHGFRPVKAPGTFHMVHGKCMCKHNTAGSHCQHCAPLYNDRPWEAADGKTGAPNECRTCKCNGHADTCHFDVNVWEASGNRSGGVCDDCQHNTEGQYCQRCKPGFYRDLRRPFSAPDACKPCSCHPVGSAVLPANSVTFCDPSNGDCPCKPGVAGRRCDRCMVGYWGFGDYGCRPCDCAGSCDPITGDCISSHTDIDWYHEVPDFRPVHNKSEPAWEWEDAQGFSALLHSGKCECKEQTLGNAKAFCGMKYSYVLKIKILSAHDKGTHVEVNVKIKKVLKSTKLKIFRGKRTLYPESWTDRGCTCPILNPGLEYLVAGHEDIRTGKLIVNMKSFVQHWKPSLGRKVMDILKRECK
The data set can be described thus: AVEXIS, prey NTN4 on bait DRAXIN 21aa.
Source text: as §1

For data set [14], the target named is T6, human Netrin-4, AVEXIS protein. The data set can be described thus: AVEXIS, prey on bait NTN4; white = No binding.
Source text: as §1

Data set [15] has the same target. The data set can be described thus: AVEXIS, prey NTN4 on bait DRAXIN.
Source text: as §1

The target in data set [16] is T1, human Netrin-G1, AVEXIS protein. Briefly: AVEXIS, prey NTNG1 on bait DRAXIN.
Source text: as §1

Data set [17] deals with T7, zebrafish DraxinB, AVEXIS protein (zebrafish).
T7 chain: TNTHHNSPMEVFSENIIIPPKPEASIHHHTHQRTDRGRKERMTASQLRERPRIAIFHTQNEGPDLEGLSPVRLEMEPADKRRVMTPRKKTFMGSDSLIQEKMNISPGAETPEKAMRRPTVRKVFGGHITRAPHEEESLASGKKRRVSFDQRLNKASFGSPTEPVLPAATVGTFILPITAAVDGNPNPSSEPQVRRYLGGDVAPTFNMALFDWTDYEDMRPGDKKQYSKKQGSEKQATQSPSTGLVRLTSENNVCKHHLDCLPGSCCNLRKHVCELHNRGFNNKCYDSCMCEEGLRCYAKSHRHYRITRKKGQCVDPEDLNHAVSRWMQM
Briefly: AVEXIS, prey on bait zDraxinB, lower value; white = No binding.

The target in data set [18] is T7, zebrafish DraxinB, AVEXIS protein. Briefly: AVEXIS, prey on bait zDraxinB, upper value; white = No binding.
Data set [19] addresses B1. Briefly: AVEXIS, prey on bait DRAXIN 21aa; white = No binding.
Source text: as §1

Data set [20] deals with T2, biotinylated recombinant human UNC5B. The data set can be described thus: AVEXIS, prey DRAXIN on bait UNC5B.
Source text: as §1

Data set [21] deals with T8, zebrafish DraxinA, AVEXIS prey or bait protein (zebrafish, UniProt Q4V9H3 24-360).
T8 construct: Prey and bait forms of the same protein are kept as one molecule; Preys are pentameric except in the monomeric-prey experiments; also called DraxinA prey protein
T8 chain: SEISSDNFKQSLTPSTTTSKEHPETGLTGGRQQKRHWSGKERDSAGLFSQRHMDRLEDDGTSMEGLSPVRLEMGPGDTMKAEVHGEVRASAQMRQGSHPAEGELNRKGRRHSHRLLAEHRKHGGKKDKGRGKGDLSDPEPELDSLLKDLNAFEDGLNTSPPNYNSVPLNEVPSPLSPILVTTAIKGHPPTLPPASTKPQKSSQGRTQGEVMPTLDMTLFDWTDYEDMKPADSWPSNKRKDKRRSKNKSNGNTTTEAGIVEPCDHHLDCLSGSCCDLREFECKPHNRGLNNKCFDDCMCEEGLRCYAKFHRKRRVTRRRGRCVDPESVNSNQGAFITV
Briefly: AVEXIS, prey on bait zDraxinA, lower value; white = No binding.

Data set [22] concerns the target T3, human Netrin-G2, AVEXIS protein. The data set can be described thus: AVEXIS, prey NTNG2 on bait DRAXIN.
Source text: as §1

For data set [23], the target named is T8, zebrafish DraxinA, AVEXIS prey or bait …. The data set can be described thus: AVEXIS, prey on bait zDraxinA, upper value; white = No binding.

With B1, the A486nm in data set [1] came to 0.059; in data set [3] it was 0.062; in data set [4], 0.066; in data set [5], 0.062; in data set [6] it was 0.063; in [11], 0.342. Also, the A486nm in data set [12] stood at 0.252; in [14] it was 0.063. For the same molecule, the binding result in [2], in data set [7], in [8], in data set [9], in data set [10] and in data set [13] was “no binding” in each case.
As for B2, the binding result in [15], in data set [16], in data set [20] and in data set [22] was “no binding” in each case. For the same molecule, the A486nm in [17] is 0.058; in data set [18] it was 0.056; in data set [19] it was 0.063; in data set [21], 0.06; in data set [3], 0.078; in [4], 0.077. The A486nm in [5] was 0.072; in data set [23], 0.06; in data set [11], 0.361; in data set [12] it was 0.213; in [14], 0.076.
